{"source": "patent US20130224191A1", "about": "“NOTUM PROTEIN MODULATORS AND METHODS OF USE” (priority 2010, published 2013)", "key": {"[1]": {"target": "T1, chimeric human/mouse Notum (Homo sapiens, UniProt Q6P988, A205S/A256S/E196D/E289D/E487K/H276R/H373G/H396Y/K251E/L360Q/L418F/L429M/L483M/M474V/N299S/P379Q/P480Q/Q248L/Q311K/R218K/R307Q/R361W/S193P/T277S/T284N/V280I/V301M/V434F/V452I/Y171H)", "T1 construct": "human mature Notum protein (residues 19-144) fused to the mouse Notum (mouse residues 150-484); His tag; made in house", "T1 sequence (Q6P988 with tags, fused parts or gaps Y171H/S193P/E196D/A205S/R218K/Q248L/K251E/A256S/H276R/T277S/V280I/T284N/E289D/N299S/V301M/R307Q/Q311K/L360Q/R361W/H373G/P379Q/H396Y/L418F/L429M/V434F/V452I/M474V/P480Q/L483M/E487K)": "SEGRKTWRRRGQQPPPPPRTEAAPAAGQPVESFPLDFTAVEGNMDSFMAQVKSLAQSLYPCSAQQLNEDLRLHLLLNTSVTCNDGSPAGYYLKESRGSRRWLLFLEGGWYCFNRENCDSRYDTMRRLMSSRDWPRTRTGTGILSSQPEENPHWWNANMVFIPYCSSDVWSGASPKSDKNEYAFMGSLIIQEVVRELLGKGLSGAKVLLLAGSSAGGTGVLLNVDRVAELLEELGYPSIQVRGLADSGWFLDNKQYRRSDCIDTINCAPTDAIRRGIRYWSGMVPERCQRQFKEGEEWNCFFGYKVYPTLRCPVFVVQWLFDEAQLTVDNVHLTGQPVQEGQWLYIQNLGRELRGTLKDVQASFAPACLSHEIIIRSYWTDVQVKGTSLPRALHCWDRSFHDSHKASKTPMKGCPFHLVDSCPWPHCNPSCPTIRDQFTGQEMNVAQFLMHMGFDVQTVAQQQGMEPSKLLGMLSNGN", "experiment": "Epitope mapping ELISA, chimeric Notum", "assay_type": "binding", "text": "(§1) To better understand the structural basis for the interaction of SC2.D2.2 with human Notum, a chimeric Notum protein was fabricated. This approach takes advantage of the fact that the orthologs are structurally related. To that end a chimeric Notum molecule composed of the N terminal of the human mature Notum protein (residues 19-144) fused to the mouse Notum (mouse residues 150-484) (genes both consistent with Example 7) was generated and expressed in a similar manner to that set forth in previous Examples. The BamHI restriction cleavage site in human Notum gene was used for construction of in-frame fusion Notum chimeric protein. An expression vector was then constructed containing the His tagged chimeric Notum sequence.\nBinding of SC2.D2.2 and other mouse mAbs to purified Notum molecules generated from transient transfection of Human and Mouse Notum cDNAs were tested using ELISA assay with human Notum, mouse Notum and chimeric human/mouse Notum coated directly on ELISA plate. Binding of anti-Notum mAbs was detected with HRP-conjugated goat anti mouse antibody and followed by colorimetric horseradish peroxidase substrate (TMB substrate Thermo Scientific). The absorbance of each well of the ELISA plates was measured at 450 nm on a microplate autoreader."}, "human Notum D141N, D141S": {"target": "T2, human Notum D141N, D141S (Homo sapiens, UniProt Q6P988, D141N)", "T2 construct": "made in house", "T2 sequence (Q6P988 20-496 D141N)": "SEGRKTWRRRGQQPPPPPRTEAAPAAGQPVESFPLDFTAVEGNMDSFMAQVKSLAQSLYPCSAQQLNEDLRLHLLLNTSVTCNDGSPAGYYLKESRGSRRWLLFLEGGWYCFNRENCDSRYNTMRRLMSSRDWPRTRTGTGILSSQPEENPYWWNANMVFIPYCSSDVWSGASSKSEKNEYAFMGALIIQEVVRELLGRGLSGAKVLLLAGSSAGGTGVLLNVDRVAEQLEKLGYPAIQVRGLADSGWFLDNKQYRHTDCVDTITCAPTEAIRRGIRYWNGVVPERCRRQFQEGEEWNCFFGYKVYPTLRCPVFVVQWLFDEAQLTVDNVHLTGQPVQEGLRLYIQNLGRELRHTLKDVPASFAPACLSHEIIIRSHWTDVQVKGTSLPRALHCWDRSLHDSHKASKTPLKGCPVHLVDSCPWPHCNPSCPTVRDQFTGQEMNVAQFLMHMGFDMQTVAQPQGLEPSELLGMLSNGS", "experiment": "Neutralization of point mutated human Notum, TCF assay", "assay_type": "cell-based", "conditions": "human D141N or D141S", "text": "Similarly, the macaque residue at this position was point mutated to the human residue (N141D). […] However, these point mutants differed in their ability to be neutralized by SC2.D2.2 (FIG. 26)."}, "macaque Notum-Fc": {"test_system": "macaque Notum-Fc", "experiment": "Neutralization of macaque Notum in 293.TCF assay", "assay_type": "cell-based", "description": "Using the 293.TCF cells, purified SC2.D2.2 and SC2.A106 antibodies were tested for their ability to neutralize murine Notum-His or macaque Notum-Fc activity as follows. 2.5×10^4 293.TCF cells were plated per well of a 96-well tissue culture plate in 50 μL of serum-free medium. After 23 hours of serum starvation, 10 μL of DMEM+0.2% FBS containing the Notum proteins at various concentrations were mixed with 15 μL of purified antibody at various concentrations, and allowed to incubate for 5 minutes at room temperature. The 25 μL antibody/Notum mixture was then added to the 293.TCF cells. After 1 hour, 25 μL of Wnt3A or control L-cell CM were added to each well. Eighteen hours after addition of CM, 100 μL of One-Glo solution (ProMega Corp.) was added to each well. The contents of each well were mixed thoroughly to lyse the cells, 100 μL of lysate transferred to black 96-well plates, and the luminescence read after 5 minutes."}, "[2]": {"target": "T1, chimeric human/mouse Notum", "experiment": "Neutralization of chimeric Notum in 293.TCF assay", "assay_type": "cell-based", "text": "as §1\nThe chimeric human/mouse Notum protein described in Example 17 was placed into the 293.TCF assay. […] (Note that FIG. 1C would annotate the residue as D129, based upon numbering from the start of the mature Notum protein, whereas the D141 annotation is based upon the consideration of the wild-type human protein precursor)."}}, "note": "“Also recorded” adds a separate entry of the source.", "data": [{"molecule": "SC2.D2.2 (antibody, V domains shown, also called murine SC2.D2.2) VH: DVQLVESGGGLVQPGGSRKISCAASGFTFSSYGMHWVRQAPEKGLEWVAYISSSTVTTYYADTVKGRFTISRDNANNTLFLQMTSLRSEDTAMYYCSRQNWDGGYFDVWGAGTTVTVSS VL: DIVLTQSLASLAVSLGQRATISCRASKSVSSSGYSYMHWYQQKPGQPPKLLIYLASNLESGVPARFSGSGSGTDFTLNIHPVEEEDAATYYCQHSRALPLTFGAGTKLELKR", "values": [{"measurement": "binding to Notum chimeric protein", "setting": "[1]", "value": "confirmed the binding"}, {"measurement": "location of epitope", "setting": "[1]", "value": "within the first 135 residues of the N terminus of the human Notum protein"}, {"measurement": "neutralization of mutant Notum protein", "setting": "human Notum D141N, D141S", "value": "eliminated the ability of SC2.D2.2 to neutralize the mutant Notum protein"}, {"measurement": "inhibition of macaque Notum activity", "setting": "macaque Notum-Fc", "value": "did not inhibit; also recorded: without inhibiting murine or macaque versions of the protein"}, {"measurement": "neutralization of chimeric Notum activity", "setting": "[2]", "value": "can be neutralized"}]}]}
